Results: publication doi:10.1101/2023.12.11.571162, “Single molecule studies of the native hair cell mechanosensory transduction complex” (bioRxiv, 2023)

What was measured:
[1] = target: the molecule itself; test: single molecule pull-down (SiMPull), photobleaching step counting; native complexes from mouse cochlea supernatant captured by mAb 8D1; labelled with 39G7 Fab-GFP or anti-LHFPL5 Fab-GFP; bleaching steps counted
[2] = target: the molecule itself; test: single molecule pull-down (SiMPull), photobleaching step counting; purified recombinant PCDH15/LHFPL5 complex captured by mAb 8D1; labelled in separate experiments with 39G7 Fab-GFP or anti-LHFPL5 Fab-GFP; bleaching steps counted

| Protein | stoichiometry N [1] | stoichiometry N [2] |
| --- | --- | --- |
| native protocadherin-15 (PCDH15) from mouse cochlea or utricle (natural protein, protocadherin-15, mouse, endogenous in cochlea and utricle; also called native PCDH15; source: endogenous, cochlea or utricle of post-natal day 6 mice, detergent supernatant (1% C12M, 0.2% CHS)) not shown | 2 | – |
| recombinant protocadherin-15 (PCDH15), Mus musculus, His-tagged construct co-expressed with LHFPL5 (natural protein, Synthesised by Genscript, cloned into pEG BacMam; also called recombinant PCDH15; His-tagged PCDH15; source: HEK293 tsa201 cells, BacMam co-infection with LHFPL5, purified as a complex (Strep-Tactin, TALON, SEC) in digitonin) not shown | – | 2 |
